Test: soluble fraction after stress (log2 fold change); higher = more stays soluble; pooled small domains, quantitative proteomics
Conditions: stress: 75 degC
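Further: 20 min heating vs room temperature control held 20 min.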

Row | Sequence | soluble fraction (log2)
1 | HMEPVQFIQFKIPDGHPWSGQLLREVRLPPGTLVVLLKHDGKNIIPNGETPLLAGDSVILSAASPT | -0.567
2 | HMEQAAQPQTGFDPRRLKAGDAVHLLALDQRGVLLEDPKPGAESAPVSVGVAGVRVVVPLREMEALPAG | 0.0201
3 | HMEQEVLDLLFDAIRSLPEKYRRLFDMSFEQGLKNAEIAALLHVSESAVKKQKASMIQQLRDDLLRKTGKD | -0.745
4 | HMEQFDFTILRELRKRAGLSIGEVSAESGVSAAVISKLERNRTRAELDTLYRLARVFGITAAELLNLAEA | -2.19
5 | HMEQIETIFLSAAPYARTHIIHLLETSELFRDKYLTIVETSNGLLIYTEDKNRLLGILNSLT | -2.51
6 | HMEQIFTELIMDGRVLGENLHRMGVDETWLLRQLRQQGYHSAREVFLAVADANKQVAVYPVS | -0.381
7 | HMEQINVTIQTEKGRIDKVLSEHLPNHSRSQIQQWLKEKHVTVNGETVRANYKVTAGDEIVVTIPEPEV | 0.546
8 | HMEQISDEDTLRKMVNEVLDNNQTQLEQYKSGKTNLIGFFVGQTLKKSAGKANPSIVNKLVNEEIYI | 0.141
9 | HMEQISIETRIEQLLARLSETEASGFEELFADTSSRADLITTFLALLEMIRLKLVRVFQDGSFGPIRIYKR | -0.572
10 | HMEQKISVPALVGRDIEEILADTEVTGNFTIKEADKRVASNRPVGEVLEQDPGTGESAVKGTIITVTVSAG | -0.0542
11 | HMEQNTKAYEQVRTLTDLLNQYRHEYYNLSAPSVSDQEYDRLFDALAALEKQTGIVMSNSPTQTVG | 0.0212
12 | HMEQPAPSTTVDILGGGRAALVTANRELGLALADDEIDYLTDSFTQLGRNPVDVELMMFAQA | -0.00398
13 | HMEQSLNTYSIRTVKESLFLAETKNLNKIEKLVEGIEGRLTLSEALVLFSDKLNAMSVLSHVNANT | -0.154
14 | HMEQTIKKYVNVATLNFRSGPSTSYSIISTLSKGTKVEVISTTNNWSKIIYDGKIGYVSSEYLSKSI | -3.07
15 | HMEQVPEAVGRRVRQARSDRGWTLDQLAERSEVSRRMIVNVEAGTSNASIATLLRLATALNVGLAELVA | -1.61
16 | HMEQVVFNGTGRRKSSIARVRIMSGKGNITVNGKALDEYFGEETLKVIVRQPLTVTDTLDKYDVIATVK | 0.0911
17 | HMEQYYVFFAGGMTIGTKEWYESILPENIATSYDDILEGKMMPASLEQIEFYNSHKDYDLYHLFYML | -4.25
18 | HMERAFRILELFDLKQDELPITEIAERTGLPISTAHRLLSTLETLGYIAQNPDNGRYRLGLQTFVLGSR | -1.86
19 | HMERAPAYPDGLTQREVEVLRLIASGKTDREIAEELFIGVRTVSTHVGNILNKTNSANRTEAASYANQQGL | -0.0632
20 | HMEREQNIAQGREVVQRELKRLGLTDVFTVEDIGRALKFDDIDEFLSKVGFGDIQTAKITGAIALMQQALR | -0.0649
21 | HMEREQNIEHGRAIVERELKRLGLSDVYTIADIATALRHDDVDQFLAKIGFGDIQSTQIGGAIAALQQR | 0.0025
22 | HMEREQPFAVTEAYRGMRLDRFLQAMLPRMSRAAIQDAIDNRVRLGSGRAAKASLRPAIGDTVFFGQRI | -1.17
23 | HMERFRQVNAGMTRDDIYQLLGKPTEKTPFPLKNEEVWSWRHQADGQTVALFNIHLDPDGRVTTTSQSMDL | 0.739
24 | HMERFVVISKDKYANLREEASTNSKVLAKVDNSYLIYNTNTYNENKDWYSVQIERDGNYYQVGYIHKSQL | -1.61
25 | HMERLKRVTLSLNQSNYSVTEIARRLQAITGIKDITVVEDEQAVYLKVDPATFDLTLAQQAV | -0.474
26 | HMERLLVSKINGMITEAKVSVEDVVKVVASRGHYPEVKSIDEYPDDFLSRWVVPNFKKIVEMINANKEA | -0.979
27 | HMERMTSTEILTRDFLTTNSKIVKKSTIEELSEIIHVSPATIIRTVKKMGYSGFSEYKNELINQ | -1.73
28 | HMERPEVVAYRLAYASAESLRPALGLVASPSDLEIDERTNTLIVRAVPSVQERVAELVASLDI | -0.492

Row | Sequence | soluble fraction (log2)
29 | HMERPKSLRELALEHLRNSIIDGSLKMGQVLSERKISEELGVSKSPVREALAQLRDEGLVSIEPQKGARV | 0.14
30 | HMERPLFVIEDYRRFAGNEVEISLKKGGKKIRGVIAGTPSDAEVTVRTQGGETTVPLGDVKRAHLVYV | -0.00192
31 | HMERRDEINSVVSRYVSAITEGKYDLAEVDETGKLRVQTEGREVLPEALSRGTLEQFYFAFRMAVGSI | 0.04
32 | HMERTQSIEAAREQLGEVTKDNVFETETLGALAILKENEPGEYAKIKADLKGKINMNDLERAVKKAAADQR | 1.02
33 | HMERYFVLVIYDIVDNKKRLKLSKYLLGYGIRVQKSAFEMMITKEKYNKLIKELPTYIEEGEDSIRLY | 0.0566
34 | HMERYLLRDNIPNALHGERLDRVIAIMTGLSRSAVSALIKSNQVLRNGQIAQSISEKVVEGDELEVHLEP | -0.832
35 | HMESDAIAAAIAALPARYREVLLLRYDNGFSYSEISKALDMTEAAVRKTVQRAKEALQRTLQIQEEDT | -0.767
36 | HMESDRVAHVVAPGETLFSISGKYGIGMGELVAANPVLESRPPRTGDTLLIRLPENPLPAETDAETLS | 0.643
37 | HMESIAEIDRMNAKIFMDEFQDSLSIMQKTTNPETFFSRYDLAMERLDNMVELQQKGIKFTSDLSSLKAQ | 0.0865
38 | HMESIEGMYKISLLRKQGNAYVIFEDENKEAVEHIFPEKPTALELGTKVIEMFEYKERYDGLI | -0.343
39 | HMESILDDFPGLGEKRKKALLEHFGSISKIKAATVGQLREVDGIGFETAAALREFLDANFPA | 0.188
40 | HMESIPDELLEAFKQDPAFKQAFYALTAGRQRGYIIHFSQPKQSQTRIGRIEKYKEQIFNGIGLN | -1.39
41 | HMESKPLTPSEIKKLRMDANMTQAGLAEVLGMTVKAVEAWESGRNIPSGAADKILRVMQKHPSVIGMMQS | 0.0281
42 | HMESLNDRIKLVFKDSGLTQMDISKRLNIAQSSVSGIISGKANPSKRTLADIADRFDVNLEWLRDGTGPMK | 0.474
43 | HMESLSHRQKSIVDWVQKNGYASIERMAEQFEVSAQTIRRDVIELSERRILQRHHGGASLPAG | -0.211
44 | HMESNDSNIEDDFYEGLKSMRKGDLKMSVVFFTRVIEKKPTFAEAWNRRATVYYMLGKFDKSMFDINETLK | -0.354
45 | HMESPELIHILKEAEWQIWQQIQGLPEKQRIAMTLFAMDDLSYQEIADVMKVSVSAIESLLFRARTQLKKY | -0.546
46 | HMESPLEQLTNRELQTLQMLGKGLSTKQIAAQLNLSVKTVETYRENLKRKLNLDSGSELIRYAIHRSNE | 0.532
47 | HMESPLNPTDVRRAAMDLLARREHGVEELRLKLKRRFGREEDFETIATEQLQRLVDEDLLSDTRF | -0.355
48 | HMESRETGLPVVIISDGRILQDNLKRRGLDLSWLDKQLAEHGYPDFRDVFLLTVDEAGGVYFVPRE | 0.438
49 | HMESSNLESQLKKGIVPNLNGLSAKDALFLLENSGFNVKLYGMGSVKKQSLEAGKKYNKGDKITLIL | 0.151
50 | HMESSYKGFILDIETRQFSPTLIQRRGIAINPSGIVETTTEFSFATQEKVLIEDLKLIIDELDLRADY | -3.69
51 | HMESTLNYSQFLSLVNEDRVAEVVIQGKELYVTDVNRSRFKVYAPPDPELIGLLRQKRVIISAKP | -0.56
52 | HMESVDRIYERVRRYADDVGTAKIPMKELDDDGPLGTAVSRIRERRKRGELTEEWEARFETLPGWTWAA | 0.045
53 | HMESWEDSNIANEFKSTIKIAEKRLAEGGDHPELLEKLEALKQAIINENQTEASKLDDQVNDILFDMDD | 0.602
54 | HMETEAGIKAYLSSSMIKGIGPVTAQRIVERFGKRTLYVLDQMPEKLLDISGISEAKLEEILNGYRKS | -0.536
55 | HMETFGEKDLDELIGRNVELITHDGKVREGLVDSVDRYNVSLVRYLDAGEVAMMVRRREVKAVRLK | -0.703
